Assay results reported in the DeepSol protein solubility set.

Assay: soluble on expression in E. coli; label from the status in PepcDB or PDB records
For “MSLLIDKFGRPVTNLRISLTKECNLNCFYCHREGQQDGERTMTPEEIERIVRIASRLGIRNVKLTGGEPTVRPDIYEIIQRIRPYVVDLSMTTNGTTLYASAEKLKEAGLDRVNISLDTLDRKKYKMITGYDVLDQVLKGIRRATNLFYPVKLNMVVMRGINDDEIWDMIRFAGEVNAILQLIEIEVPREMENSQFFKDFFYPLKPLEEKFEKIAVEIRERKMHRRRKYFLPVDGKMVEVEVVRSMHNTTFCMNCTRLRLTADGYLKTCLLRKDDLIDILGPIRRGATDDELVKIFKRAVQLRKPYWINEGHHHHHH”, the “soluble on expression in E. coli” value was “soluble”. With “MSLLIVQKYGGTSMGSIERIHNVAQRVLESVTLGHQVVVVVSAMSGETDRLLEFGKNFSHNPNKREMDRIVSVGELVSSAALSMALERYGHRAISLSGKEAGILTSSHFQNAVIQSIDTKRITELLEKNYIVVIAGFQGADIQGETTTLGRGGSDLSAVALAGALKAHLCEIYTDVDGVYTTDPRIEEKAQKIAQISYDEMLELASMGAKVLLNRSVELAKKLSVKLVTRNSFNHSEGTLIVAEKDFKGERMETPIVSGIALDKNQARVSMEGVEDRPGIAAEIFGALAEYRINVDMIVQTIGRDGKTDLDFTIVKTQIEETKQALKPFLAQMDSIDYDENIAKVSIVGVGMKSHSGVASIAFKALAKDNINIMMISTSEIKISVLIDIKYAELAVRTLHAVYQLDQEGHHHHHH” the “soluble on expression in E. coli” value was “not soluble”. In the case of “MSLLKNVEVFWQNFLDKHELDMLMPDVWMFGDGSSEMGNRLGQLVVSGRKTATCSSLDIYKMEEEQLPKAGQYDIILDGQSQPLAIIRTTKVEIMPMNKVSESFAQAEGEGDLTLDYWYEEHARFFKEELAPYQLQFYPDMLLVCQSFEVVDLYTEKEEGGSHHHHHH”, the “soluble on expression in E. coli” value is reported as “soluble”. With “MSLLNIKFTDNAVDYLKRREILDKILILITDDGGGKYSIQGGSCSMGAHFSIIWLDKVDPDYPVKIANEQNVKIYTSDFDKTMLGPNMVMDYNAGSLSLSSDEGLLDGSVDIGNGAALLKANKNVQMGINRQCEGHHHHHH” the “soluble on expression in E. coli” value was “soluble”. In the case of “MSLLRQRFVFDTTALTDSQAWESEGCTTLCEGMSAILHRVAQARLHLGISCYVPYPSVYNEIRDFVRNNNCDIAILGKIDTWLVKKTPDRYRVKIPSKIFYEYVDYMRSRINKGMNVSEEAIWEAVSRCLSISATGEGREQMREEIEREVVGSIIRKFREKYRAALRYGILDSAPDIDVLLLAKDLDAAVVSQDLGIQRWAEQLGLRFMEARAFPQMVREYMSFVPLHTEELEDRMVEGHHHHHH”, the “soluble on expression in E. coli” value is reported as “soluble”. For “MSLLSEENEFLFDLNEIPEKTVYSDDGDEFLFDLNKIPPREETVNSSDEDFADHLHRRNQATKRKKKLRKRPKVFRHIEKVISFSFYLVLRASSFLFLDLNWGLRMDTDPYQELRMDTDHMTYEQLLQLCNNMGYENSGVKASNIDRCLRNTKPSEFQSLADKICCICQDGFQKRAGVGKLNCGHNFHVNCVKPWILTKK”, the “soluble on expression in E. coli” value was “soluble”. With “MSLLTPEQIAAAQKANIESLFGLTTKAFEGVEKLIELNLQVVKSTLAESQENVQRALSVKDAQELLALQASLTQPIAEKVLAYGRHVYEIASATQAEFAKVAEAQYEEQNRKVQALVDNVAKNAPAGSETAVAALKSAINAANTTYETVQK” the “soluble on expression in E. coli” value was “not soluble”. With “MSLLTQIKGEWVLGFADGNHRMLRDASVVYEGERIVHVGTEFDGVADRVIDARGCLVAPGFIDTHVHSGHRALHKLLADGGRPDLFGQPYMDVTIARDGTRIKGYPNYLSREEAAVDPGIALHAAFTVAELLRNGVTTFVELGGHVMVQEALWRECERLGVRGYLGAGYDSGRWAADDQGRLRRVPYPDGGDHLFEEAVAFIKRVQAAGNDLVNGILVPREVENCSVDILRRTVQAAQELGVPMATHAGYNVIEFYETVREHRMTPIELLHSVGMLGPRLNIGHANLISDSPRLNYSGGRDLALMGEHRVSISHCPINIVRRARVLDSWKKYREAGVNLTIGSDTYPRDMVMNMRTASYHGKVMSHDLTAASAAEVFEAATLGGARSLGRTDIGRLEPGARADVIAINVGRQDVLRYGPIWDPIRSLVECGVGDDVELVVTNGQVRMEQGRIVGVDLGALRAEAQQFADNVWRDLQDWDPLRRTAQAMCPPLFCPDCMEGHHHHHH” the “soluble on expression in E. coli” value was “soluble”. For “MSLLTVGIVDDNPRDLEKLELIVNNMENVELILKANSADEVYHSIQKTPVDLLITDIEMPGMSGYQLADFIQLNNMKTAVIFVTAKSGYAVHAFELNVHDYILKPFNPDRLIQSIDRFTEKKDAGRVTGRLFIRSDGDLVVVPKAEIIFLERTGRTTTIHTINETYETYQSLGELEGDIRESMFIRSHRSFIINLQYVKRFASYSKKSFVVIFEGSSGKALVTKEKLKYLQENYEGHHHHHH”, the “soluble on expression in E. coli” value was “not soluble”. With “MSLLTVVHDQDSSNEDACGSRSLLDEIVRDGARQMLAAALAAEVAAYIDAHAGEVDENGHRLVVRNGYHREREVLTAAGAVTVIAPRVNDKRIDADTAERRRFSSAILPAWARKSPQMTEVLPLLYLHGLSTSDFGPALEQFLGSGAGLSATTITRLTAQWQDEAKAFGERDLSGTDYVYLWVDGIHLKVRLEQEKLCLLVMIGVRSDGRKELVGLADGYRESTESWADLLRSCRRRGMTAPVLAVGDGALGFWKAMREVFPATREQRCWFHKQANVLSCLPKSAHPGALAAMREIYNAEDIDHAQVAIKAFEVDYGAKYPKAVAKIVDDADVLLEFYRYPAEHWIHLRTTNPIESTFATVRLRTKVTKGPGSRAAGIAMAYKLIDAAQARWRAVNAPHLVALVRAGAVFHKGKLLEREGHHHHHH” the “soluble on expression in E. coli” value was “not soluble”. For “MSLMKQIKHFNQNYQELRQLGKVAIGRRAGKLKAGTIILFAVDSQGKILAARKMQGVTVLAKFHPLPQYVNEDIHYMDHYHPLVQKENKLTQQAMENAREIYLRVELGNYQETQPLTPLNGAKIQWQLWKNKVQTKLKGSVEEGHHHHHH”, the “soluble on expression in E. coli” value was “not soluble”. For “MSLMSSKPIYKRVLLKASGEALMGDQGFGIDVAVADRIASDIAEARAMGVEVGVVVGGGNIFRGVAVASKGGDRVTGDHMGMLATVINALALATSLRKLSIDTVVLSAIAMPEICESFSQRAALHHLAQGRVVIFAGGTGNPFFTTDSAAALRAAEMGAEAIFKGTQVDGIYSADPKKDPTATRFDELTHSEVLGKGLAVMDIAAVALARENHIPIIVFSIHEKGGFAQILTGGGRKTIVHDKEGHHHHHH”, the “soluble on expression in E. coli” value was “soluble”. In the case of “MSLNADKFRKIDAHSHIQVLGYPFNVSITPEEFLSLMEAYNIEIAIISDVNNDNIAKIVKEYPDKLVGIYWPNPRDEKSINETEKFLEKYEFRGIKLHPLLNMFSPSDPRVEKIMKIAEEFNVHVQIHSGHPPTSLPWQIEELARKFPEVKIVMVHMGHGNAYYIQGAIEIAGRNENIYLETSGMPMPSKIAEAYEVAPRRVVFGIDLPCHHPVVEIAKVLISGLNEKGMKRVFYENAKVLLEGHHHHHH”, the “soluble on expression in E. coli” value is reported as “not soluble”. With “MSLNADTPLQLLGGLTAAEFLRDYWQRKPLLVRQAIPDFESPLSADELAGLSLEESVESRIVLEHGKTPWEMRRGPFQEEDYQHLPEQDWTLLVQAVDQFVPEVAQLLEQFRFLPSWRIDDVMISYAAPGGGVGPHFDNYDVFLLQGHGRRRWKVGQMCSSDSPLREHADLRILADFEQSDEWVLEPGDMLYLPPRLAHYGIAEDECMTYSIGFRAPSAAEVLTHFTDSLGQFLSDEERYTDAGLQPVGDDPHQIQRDALERLQGLIQEHMSDERLLLTWFGQFMTEPRYPELVAGEDIPEEELFGALEDGALLVRNPSARLAWSEIDIGLVLFASGQSVLLPGQLKELLKLVCSADALHLENLGQWLADDDARKLLAELVKQGSLEFADEEGGSHHHHHH” the “soluble on expression in E. coli” value was “soluble”. In the case of “MSLNAEEKKGLQRAIEEITEIAKGFGLDFYPMRYEICPAEIIYTFGAYGMPTRFSHWSFGKQFHKMKLHYDLGLSKIYELVINSDPCYAFLLDSNSLIQNKLIVAHVLAHCDFFKNNCRFQNTKRDMVESMAATAERIKHYEQVHGIKEVESFLDAILSIQEHIDPSLVRPKLQWSVDDEEEEIEEAATPYDDLWSLDEKKPKKQVKKSKKPFPPRPEKDILLFIEEHSRELEPWQRDILTMMREEMLYFWPQLETKIMNEGWASYWHQRIIRELDLTSDEAIEFAKLNAGVVQPSKTGINPYYLGLKIFEDIEKRYNNPTEEMKKMGVQPDSGREKMFEVREIESDISFIRNYLTKELVMREDLYLFQKQGRDYKIIDKQWKSVRDQLVSMRVNGGFPYLTVNDGDYMKNNELYIKHWYEGIELDLKYLEKVLPYLFQLWGRSVHIESVLEDKEVMFSYDGKGVHRRYLEGHHHHHH”, the “soluble on expression in E. coli” value is reported as “not soluble”. For “MSLNAEIGIDSITLSIARVTPSTHWTFVEIVDEENRIGLGEATLTGRDSELLRAASDMFPAIVDMRVDDAASWLDTLELGTIARAAVASALSHAVTDLRARIRNRSIAELLGHPVRAFIPMYANINRRTHTRSPDSFAHSARSAVAAGFSAVKIAPFDGVTLYGSDAHAQPSLIDAALERIAAVRDAVGPAVDVMVDCHWRLNAHVARQVLASDVCDGLHWLECPLPETPDRLHELRALRSLANDRGIRLAGCEEAIRAEGFMPFVEAGAYDVMMPDVKYVGSVDEMLHVAQLLGRHDVEFSPHNPSGPVAHAVSMQICSLVPNFRRMEMQFDETPYFHTLTGATVPVPDNGGAQIARTSGIGMRLDRDALDPLTIRRLQFHRACRAGELVVTEGHHHHHH”, the “soluble on expression in E. coli” value was “soluble”. For “MSLNDTALTITAVRAVLLSHRYQPGEELTWVGGTIWSWDAALVEVTLSDGTTGIGEAGAGIMAAAAVPGIVDAFRPYVLDHEFGHPLEVADHLRAYTAFWARGGMLNGVAGAIETAAVDAVAKRLGVPAYEVLGGLKRDWIESYASGGLGTTFGEVSDWAAAQIEAGFGTVKFRAMTDPDTTIKLLDHVTALLPEGIQFVIDAVQACASDPWPVDEAIRVGQKAAELGARWYEEPCQADDVAGYAAVRAAVNVPISGVESNGTVRDFAQLLDAKALDVAQPDVTFVGGPKAFAQVAELAHATGVKTVPHVWGSGVTFAANLHTVLANPYVELFEYCTLPNPLRDAMRVEEVDFRDGGIVAPTAPGLGIQLTPEIEAQFPFSPGGGHVIREGHHHHHH”, the “soluble on expression in E. coli” value was “soluble”. For “MSLNKKIEELNKLDKKVVLAPMAGITDGDFCRKFKDLFAIVTIGGYNLDSATYKASRDIEKRGRKEFSINLEEFNSYIIEQIKKARESNALVSVNVRFVDIDEAYDKLLTIAKHADIIELNCHCRQPEITSLGIGQELMKNKNLLKEFLTKMKELNKPIFLKIRLNCIPLKELIDNLNYVRDYFDGLHVDCFYPGKPYADMDSLKILAEEFNDKIIIGNNSIDSIEKAKEMLKYSDFVSVARTILKGNVEWIKELNKENIEGHHHHHH”, the “soluble on expression in E. coli” value was “soluble”. With “MSLNLKKAELHVHLEGTISPELAKKLAKRNQLTLPNGLIAPDEKSYLSRDFLDFLKVYDTLASVIKNPQDYYDITFDYLKSNAQEHAIYIEMMYSPDHAEQSSGIPSKEHLAAIQQAIDDAKSQFDIVGRIIITAVRHFGVEACERVAKQASIDKFPCVTGFGLGGDEAKFPPQLFTKAYQIAADSGLECTVHAGEFDSAKGMEEAMKTLPIKRIGHGVRVIDSPDIMAMVKDQGIALEVCPTSNIFLGLFKDMNSHPFPKLYEAGIKVSINSDDPPFMSTTLAQEYKRVQKAYGYNNDTMNNITRMAIEAAFVDEKTRKELLTKLEQEGHHHHHH” the “soluble on expression in E. coli” value was “soluble”. For “MSLNNIQIRNYQPGDFQQLCAIFIRAVTMTASQHYSPQQISAWAQIDESRWKEKLAKSQVWVAIINAQPVGFISRIEHYIDMLFVDPEYTRRGVASALLKPLIKSESELTVDASITAKPFFERYGFQTVKQQRVECRGAWFTNFYMRYKPQHEGGSHHHHHH”, the “soluble on expression in E. coli” value was “soluble”.
